These results are taken from US20170101472A1 (Regeneron, published 2017).

Positions count from the first letter of the chain named. Names may count otherwise. Where only a bound is given, the exact number is not on record here.

Sequences and labels used below:
B1: H4H17826P2 (antibody, human IgG4, V domains shown)
VH: EVQLVESGGGLVQPGGSLRLSCAASGFTFSSYEMNWVRQAPGKGLEWVSYISSSGNTKDYAGSVKGRVTISRDNAKNLLYLQMNSLRAEDTAVYHCARDGGHYDILTGSMSYYYYALDVWGQGTTVTVSS
VL: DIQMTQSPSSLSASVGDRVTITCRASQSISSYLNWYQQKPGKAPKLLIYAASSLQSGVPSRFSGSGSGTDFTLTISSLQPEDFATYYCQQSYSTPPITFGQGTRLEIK
notes: H4H = human IgG4 Fc with S108P hinge mutation
B2: H4sH15498P2 (antibody, V domains shown)
VH: EVQLVESGGGLVQPGGSLRLSCAASGFTFTSYAMTWVRQAPGKGLEWVSDISGSGGRTYYADSVKGRFTISRDNSKNMLYLQMNILRAEDTAVYHCAKGTGQQVDLYNYYYALDVWGQGTTVTVSS
VL: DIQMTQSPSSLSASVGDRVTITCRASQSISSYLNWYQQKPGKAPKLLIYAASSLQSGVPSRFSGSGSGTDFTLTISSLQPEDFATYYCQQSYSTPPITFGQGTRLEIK
notes: H4sH = human IgG4 Fc with 2 or more amino acid changes as disclosed in US20140243504
B3: H4H15498P2 (antibody, human IgG4, V domains shown)
VH: B2 VH
VL: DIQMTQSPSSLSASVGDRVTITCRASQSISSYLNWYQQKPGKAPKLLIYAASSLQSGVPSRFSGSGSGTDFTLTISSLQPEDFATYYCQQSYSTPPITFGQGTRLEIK
notes: as for B1
B4: H4H17828P2 (antibody, human IgG4, V domains shown)
VH: EVQLVESGGGLVQPGGSLRLSCAASGFTFKTYAMSWVRQAPGRGLEWVSGISGSGSTSYYADSVKGRFTISRDNYKKTLSLQMNSLRAEDTAVYYCALDIMATVGGLFNNWGQGTLVTVSS
VL: not shown
notes: as for B1
B5: H4H17819P (antibody, human IgG4, V domains shown)
VH: EVQLVESGGGLVQPGGSLRLSCVASGFTFSLYAMTWVRQVPGKGLEWVSTISGSGGGTYYTDSVKGRFTISRDNSKNTLYLQMNSLRADDTAVFYCTKESTTGTYSYFYGMDVWGQGTTVTVSS
VL: DIQMTQSPSSLSASVGDRVTITCRASQTISSYLNWYQQKPGKAPKLLIYAASSLQSGVPSRFSGSGSGTDFTLTLSGLQPEDFATYYCQQSYSTPLTFGGGTKVEIK
notes: as for B1
B6: H4H15479P (antibody, human IgG4, V domains shown)
VH: QVQLQQWGAGLLNPSETLSLTCAVYGGAFSDYYWNWIRQPPGKGLEWIGEINHRGSTNYNPSLKSRVTISVDTSKNQFSLRMSSVTAADAAVYYCARGEDYDIWNGYYQEKWGQGTLVTVSS
VL: EIVLTQSPATLSLSPGERATLSCRASQSISTYLAWYQQKPGQAPRLLIYDASKRATGIPARFSGSGSGTDFTLTISSLEPEDFVVYYCHQRSNWPLTFGGGTKVEIK
B7: H4H15483P (antibody, human IgG4, V domains shown)
VH: QVQLQQWGAGLLPPSETLSLICAVYGGSFSGYYWSWIRQPPGKGLEWIGEINHRGSTNYNPSLKSRATISVDTSKNQFSLKLSSVTAADTAVYYCSRGEDYYDSSGYSYYFDYWGQGTLVTVSS
VL: B6 VL with I29V, T31S, K53N, V84A, H89Q
notes: as for B1
B8: H4sH15462P (antibody, V domains shown)
VH: QVQLVQSGAEVKKPGASVKVSCKASGYTFTNYYIHWVRQAPGQGLDWMGIINPGGGNTNYAQKFLGRVTMTRDTSTTTVYMELSSLRSEDTAIYYCARENWNSYFDNWGQGTLVTVSS
VL: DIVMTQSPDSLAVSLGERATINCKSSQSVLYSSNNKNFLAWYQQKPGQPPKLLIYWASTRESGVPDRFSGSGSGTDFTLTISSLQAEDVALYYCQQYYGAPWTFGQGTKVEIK
notes: as for B2
B9: H4H15462P (antibody, human IgG4, V domains shown)
VH: B8 VH
VL: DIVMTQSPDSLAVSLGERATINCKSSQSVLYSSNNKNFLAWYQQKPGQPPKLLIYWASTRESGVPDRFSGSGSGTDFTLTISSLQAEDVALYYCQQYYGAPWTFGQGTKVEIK
notes: as for B1

The target of the first assay is T1, monkey LAG3 (mfLAG3) expressed on HEK293 cells (cynomolgus monkey, UniProt P18627 24-525 (human entry)).
T1 construct: also called HEK293/mfLAG3; HEK293-mfLAG3
T1 chain: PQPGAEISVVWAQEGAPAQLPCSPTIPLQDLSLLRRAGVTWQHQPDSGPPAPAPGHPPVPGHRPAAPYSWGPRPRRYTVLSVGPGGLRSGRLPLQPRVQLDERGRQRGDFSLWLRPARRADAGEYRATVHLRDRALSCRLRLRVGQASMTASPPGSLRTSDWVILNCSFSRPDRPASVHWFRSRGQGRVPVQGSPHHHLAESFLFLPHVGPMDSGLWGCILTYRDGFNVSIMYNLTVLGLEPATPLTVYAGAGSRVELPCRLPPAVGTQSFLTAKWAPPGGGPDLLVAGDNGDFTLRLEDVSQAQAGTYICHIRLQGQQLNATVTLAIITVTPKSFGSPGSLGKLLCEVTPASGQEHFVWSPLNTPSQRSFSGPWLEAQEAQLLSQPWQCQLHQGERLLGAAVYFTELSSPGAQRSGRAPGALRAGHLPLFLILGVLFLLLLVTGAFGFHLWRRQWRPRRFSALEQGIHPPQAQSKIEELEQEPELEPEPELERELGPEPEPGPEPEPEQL
Put plainly: electrochemiluminescence cell binding.
On to B1, for which the “Ratio of 100 nM antibody binding HEK293-mfLAG3 to HEK293 cells” value (shortened to “Ratio … to HEK293 cells”) amounted to 4.7.

For B2, the “Ratio … to HEK293 cells” value worked out at 32.7.

For B3, the “Ratio … to HEK293 cells” value stood at 13.8.

Turning to B4, the “Ratio … to HEK293 cells” value came out at 6.

In the case of B5, the “Ratio … to HEK293 cells” value came to 8.3.

As to B6, the “Ratio … to HEK293 cells” value amounted to 2.1.

The next assay concerns the target T1, monkey LAG3 (mfLAG3) expressed on …. As to the kind of experiment: flow cytometry, HEK293/mfLAG3 cells. The procedure:
The serially diluted antibodies were added to the cell suspension and incubated for 15-30 minutes on ice. The cells were centrifuged and pellets were washed with staining buffer to remove unbound antibodies. […] The cells were centrifuged and pellets were washed with staining buffer to remove unbound secondary F(ab′)2 and fixed overnight with a 1:1 dilution of Cytofix (BD Biosciences, #554655) and staining buffer. Following day, fixed cells were centrifuged and pellets were washed with staining buffer, resuspended and filtered. Fluorescence measurements were acquired on HyperCyt® cytometer and analyzed in ForeCyt™ (IntelliCyt; Albuquerque, N. Mex.) to determine the mean fluorescence intensities (MFI). The EC₅₀ values were calculated from a four-parameter logistic equation over an 11-point response curve using GraphPad Prism. EC₅₀ was defined as the concentration of antibody at which 50% of maximal binding signal is detected. The MFI ratio for each antibody was calculated by dividing the MFI at 100 nM by MFI at 0 nM of antibody concentration.
Consider B1, for which the EC50 is above 10 nM and the “Ratio of MFI (100 nM/0 nM)” value is 14.3.

For the molecule B2, the half-maximal effective concentration (EC50) was above 10 nM and the “Ratio of MFI (100 nM/0 nM)” value amounted to 12.1.

Turning to B3, the EC50 was above 10 nM and the “Ratio of MFI (100 nM/0 nM)” value was 12.8.

As for B5, the EC50 is above 10 nM and the “Ratio of MFI (100 nM/0 nM)” value came out at 12.1.

Regarding B6, the response was half-maximal at 1.35 nM (EC50) and the “Ratio of MFI (100 nM/0 nM)” value came out at 21.5.

B7: the EC50 was above 10 nM and the “Ratio of MFI (100 nM/0 nM)” value stood at 8.8.

Take B8: the “Ratio of MFI (100 nM/0 nM)” value worked out at 1 and the binding result was “no binding (tested: 100 nM)”.

Turning to B9, the “Ratio of MFI (100 nM/0 nM)” value came to 2.9 and the binding result is given as “no binding (tested: 100 nM)”.

The target is the same in another assay. Put plainly: electrochemiluminescence cell binding, HEK293-mfLAG3. The procedure: To investigate the ability of a panel of anti-LAG3 monoclonal antibodies to bind cell-surface expressed LAG3, an in vitro binding assay utilizing human and monkey LAG3 expressing cell lines in an electrochemiluminescence based detection platform [Meso Scale Diagnostics, Rockville, Md.—(MSD)] was developed.
Experiments were carried out according to following procedure. Cells from the three cell lines described above were rinsed once in 1×PBS buffer without Ca²⁺/Mg²⁺ followed by 10-minute incubation at 37° C. with Enzyme Free Cell Dissociation Solution. […] Approximately 10,000 cells per well in the cell-washing buffer were seeded into the 96-well carbon electrode plates (MULTI-ARRAY high bind plate, MSD) and incubated for 1 hour at 37° C. to allow the cells to adhere. Nonspecific binding sites were blocked by 2% BSA (w/v) in PBS for 1 hour at room temperature. […] The plates were then washed to remove the unbound antibodies using an AquaMax2000 plate washer (MDS Analytical Technologies). The plate-bound antibodies were detected with a SULFO-TAG™-conjugated anti-human IgG antibody (MSD) for 1 hour at room temperature. After washes, the plates were developed with the Read Buffer (MSD) according to manufacturer's recommended procedure and the luminescent signals were recorded with a SECTOR Imager 6000 (MSD) instrument. The direct binding signals (in relative light units—RLU) were analyzed as a function of the antibody concentration and the data were fitted with a sigmoidal (four-parameter logistic) dose-response model using Graph Pad Prism™ software. The potency of each antibody was determined by calculating EC₅₀.
As to B1, the EC50 amounted to 7.85 nM.

B2 came in with a 50% effective concentration (EC50) of 20 nM.

B3 showed an EC50 of 9.68 nM.

Consider B4, for which the EC50 amounted to 13.1 nM.

B5 came in with an EC50 of 40.2 nM.

Take B6: the midpoint of the response, the EC50, lay at 73.9 nM.

In general, EC50 refers to the concentration at which the effect is half-maximal.
